From patent publication US20180230213A1 (AVEO PHARMACEUTICALS, published 2018) come the findings set out here.

Positions count from the first letter of the chain named. Names and notes keep the numbering of the source.

Assay [1] addresses T1, monomeric recombinant cynomologus monkey Notch3 extracellular domain (containing EGF like domains 1-12) … (cynomologus monkey).
T1 construct: domain: EGF like domains 1-12; also called monomeric rcNotch3
Description: SPR BIAcore T100, antibody captured by anti-human IgG Fc, monomeric rcNotch3 analyte, 25 C. As for the experimental part: (§1) The binding affinities and kinetics of binding of chimeric and humanized antibodies to monomeric recombinant human Notch3 extracellular domain (containing EGF like domains 1-11) fusion protein (monomeric rhNotch3) and monomeric recombinant cynomologus monkey Notch3 extracellular domain (containing EGF like domains 1-12) fusion protein (monomeric rcNotch3) were measured by surface plasmon resonance, using a BIAcore® T100 instrument (GE Healthcare, Piscataway, N.J.).
(§2) Goat anti-human IgGs (Fc fragment specific, Jackson ImmunoResearch, West Grove, Pa.) were immobilized on carboxymethylated dextran CM4 sensor chips by amine coupling, according to a standard protocol. Analyses were performed at 25 and 37° C. using PBS containing 0.05% surfactant P20 as running buffer. The antibodies were captured in individual flow cells at a flow rate of 10 μL/minute. Injection time was varied for each antibody to yield an Rmax between 30 and 60 RU. Buffer or Notch3 protein diluted in running buffer was injected sequentially over a reference surface (no antibody captured) and the active surface (antibody to be tested) for 240 seconds at 60 μL/minute. The dissociation phase was monitored for up to 900 seconds. The surface was then regenerated with two 60-second injections of 10 mM Glycine-HCl, pH 2.25, at a flow rate of 30 μL/minute. The Notch3 concentration range tested was 50 nM to 6.25 nM.
Kinetic parameters were determined using the kinetic function of the BIAevaluation software (GE Healthcare) with double reference subtraction. Kinetic parameters for each antibody, kₐ (association rate constant), kd (dissociation rate constant), and KD (equilibrium dissociation constant) were determined.

The target of assay [2] is T1, monomeric recombinant cynomologus …. In words: SPR BIAcore T100, antibody captured by anti-human IgG Fc, monomeric rcNotch3 analyte, 37 C. The procedure:
as §1, §2

Assay [3] deals with T2, monomeric recombinant human Notch3 extracellular domain (containing EGF like domains 1-11) fusion protein (human, UniProt Q9UM47 40-467).
T2 construct: domain: EGF like domains 1-11; also called monomeric rhNotch3
T2 sequence (looked up): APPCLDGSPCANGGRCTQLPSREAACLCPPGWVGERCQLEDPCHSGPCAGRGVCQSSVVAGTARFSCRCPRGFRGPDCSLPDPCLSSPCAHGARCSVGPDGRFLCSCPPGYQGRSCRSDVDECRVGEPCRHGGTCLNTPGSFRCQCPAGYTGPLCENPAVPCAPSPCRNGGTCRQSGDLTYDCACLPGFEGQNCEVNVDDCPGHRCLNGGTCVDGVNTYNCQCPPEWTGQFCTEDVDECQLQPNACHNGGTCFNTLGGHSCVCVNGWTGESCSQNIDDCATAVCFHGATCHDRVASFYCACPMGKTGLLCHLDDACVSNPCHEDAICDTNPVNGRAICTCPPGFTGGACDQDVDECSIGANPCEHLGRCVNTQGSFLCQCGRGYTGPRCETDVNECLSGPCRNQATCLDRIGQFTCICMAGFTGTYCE
In words: SPR BIAcore T100, antibody captured by anti-human IgG Fc, monomeric rhNotch3 analyte, 37 C. As for the experimental part: as §1, §2

Assay [4] concerns the target T2, monomeric recombinant human Notch3 …. In words: SPR BIAcore T100, monomeric rhNotch3 analyte, 37 C, average of Table 16 and additional measurements. The procedure: as §2

B1: Hu4F11-70 (antibody, human IgG1, kappa, V domains shown)
VH: EVQLLESGGGLVQPGGSLRLSCAASGFTFSHYDMSWVRQAPGKGLEWVSYISRGGGSTYYPDSVKGRFTISRDNSKNTLYLQMNSLRAEDTAVYYCGRHATTAYWYFDVWGQGTMVTVSS
VL: DVVMTQTPLSLSVTPGQPASISCRSSQSLVHTHGNTYLHWYLQKPGQSPQLLIYKVSNRFSGVPDRFSGSGSGTDFTLKISRVEAEDVGVYFCSQSTHVPWTFGQGTKVEIKR
notes: Humanized, human IgG1 kappa; Hv3-23 A28T S31H T62S heavy + Kv2D-29 N28H kappa
Consider B1, for which the Kd in assay [1] turned out to be 5.2 nM; in assay [2], 9.1 nM; in assay [3] it was 3 nM; in assay [4] it was 7.5 nM. In addition, the koff turned out to be 0.001 s⁻¹ in assay [1], 0.0029 s⁻¹ in assay [2], 0.0028 s⁻¹ in assay [3] and 0.0039 s⁻¹ in assay [4]. For the same molecule, the kon in assay [1] worked out at 200000 M⁻¹ s⁻¹; in assay [2] it was 370000 M⁻¹ s⁻¹; in assay [3], 940000 M⁻¹ s⁻¹; in assay [4] it was 690000 M⁻¹ s⁻¹.

B2: Hu4F11-79 (antibody, human IgG1, kappa, V domains shown)
VH: B1 VH with H31S
VL: B1 VL with H33Q
notes: Humanized, human IgG1 kappa; Hv3-23 A28T T62S heavy + Kv2D-29 N28Q kappa
Consider B2, for which the Kd in assay [1] amounted to 3.4 nM; in assay [2] it was 23 nM; in assay [3], 3.2 nM; in assay [4], 16 nM. For the same molecule, the koff in assay [1] is 0.0046 s⁻¹; in assay [2], 0.021 s⁻¹; in assay [3] it was 0.006 s⁻¹; in assay [4], 0.0091 s⁻¹. In addition, the on-rate constant (kon) in assay [1] was 1.3e+06 M⁻¹ s⁻¹; in assay [2], 980000 M⁻¹ s⁻¹; in assay [3], 1.8e+06 M⁻¹ s⁻¹; in assay [4], 900000 M⁻¹ s⁻¹.

B3: Hu4F11-69 (antibody, human IgG1, kappa, V domains shown)
VH: B1 VH with H31N
VL: B1 VL
notes: Humanized, human IgG1 kappa; Hv3-23 A28T S31N T62S heavy + Kv2D-29 N28H kappa
For B3, the Kd worked out at 7.7 nM in assay [1], 11 nM in assay [2], 2.9 nM in assay [3] and 8.5 nM in assay [4]. Moreover, the koff in assay [1] amounted to 0.00094 s⁻¹; in assay [2], 0.0038 s⁻¹; in assay [3], 0.0038 s⁻¹; in assay [4], 0.0037 s⁻¹. Further, the kon in assay [1] is 120000 M⁻¹ s⁻¹; in assay [2], 400000 M⁻¹ s⁻¹; in assay [3], 1.3e+06 M⁻¹ s⁻¹; in assay [4], 710000 M⁻¹ s⁻¹.

B4: Hu4F11-32 (antibody, human IgG1, kappa, V domains shown)
VH: B1 VH with T28A, H31S, S63T
VL: B1 VL with H33N
notes: Humanized, human IgG1 kappa; Sh4F11 Hv3-23 heavy + Hu4F11 Kv2D-29 kappa
Take B4: the Kd was found to be 18 nM in assay [1], 32 nM in assay [2], 2.7 nM in assay [3] and 7.6 nM in assay [4]. Also, the koff in assay [1] turned out to be 0.0075 s⁻¹; in assay [2], 0.016 s⁻¹; in assay [3], 0.0046 s⁻¹; in assay [4] it was 0.084 s⁻¹. Also, the association rate constant (kon) came out at 790000 M⁻¹ s⁻¹ in assay [1], 500000 M⁻¹ s⁻¹ in assay [2], 1.7e+06 M⁻¹ s⁻¹ in assay [3] and 7.4e+06 M⁻¹ s⁻¹ in assay [4].

B5: Hu4F11-71 (antibody, human IgG1, kappa, V domains shown)
VH: B1 VH with H31S
VL: B1 VL
notes: Humanized, human IgG1 kappa; Hv3-23 A28T T62S heavy + Kv2D-29 N28H kappa
For B5, the Kd in assay [1] stood at 2.7 nM; in assay [2], 14 nM; in assay [3] it was 3 nM; in assay [4], 9.2 nM. The koff in assay [1] worked out at 0.004 s⁻¹; in assay [2] it was 0.0056 s⁻¹; in assay [3], 0.0037 s⁻¹; in assay [4] it was 0.0095 s⁻¹. Also, the kon in assay [1] was determined as 1.5e+06 M⁻¹ s⁻¹; in assay [2], 410000 M⁻¹ s⁻¹; in assay [3] it was 1.2e+06 M⁻¹ s⁻¹; in assay [4], 1.1e+06 M⁻¹ s⁻¹.

B6: Hu4F11-77 (antibody, human IgG1, kappa, V domains shown)
VH: B1 VH with H31N
VL: B1 VL with H33Q
notes: Humanized, human IgG1 kappa; Hv3-23 A28T S31N T62S heavy + Kv2D-29 N28Q kappa
Regarding B6, the Kd in assay [1] amounted to 2.6 nM; in assay [2], 12 nM; in assay [3], 3.3 nM; in assay [4], 8.6 nM. For the same molecule, the koff in assay [1] is 0.0025 s⁻¹; in assay [2], 0.01 s⁻¹; in assay [3], 0.0073 s⁻¹; in assay [4], 0.0074 s⁻¹. The kon was determined as 960000 M⁻¹ s⁻¹ in assay [1], 910000 M⁻¹ s⁻¹ in assay [2], 2.2e+06 M⁻¹ s⁻¹ in assay [3] and 1.2e+06 M⁻¹ s⁻¹ in assay [4].

B7: Hu4F11-72 (antibody, human IgG1, kappa, V domains shown)
VH: B1 VH with T28A
VL: B1 VL
notes: Humanized, human IgG1 kappa; Hv3-23 S31H T62S heavy + Kv2D-29 N28H kappa
Consider B7, for which the Kd in assay [1] came to 1.6 nM; in assay [2] it was 9.8 nM; in assay [3] it was 5.2 nM; in assay [4], 7 nM. Further, the koff in assay [1] was determined as 0.0045 s⁻¹; in assay [2] it was 0.0032 s⁻¹; in assay [3], 0.00094 s⁻¹; in assay [4] it was 0.0069 s⁻¹. Also, the kon in assay [1] was found to be 2.8e+06 M⁻¹ s⁻¹; in assay [2], 440000 M⁻¹ s⁻¹; in assay [3] it was 180000 M⁻¹ s⁻¹; in assay [4] it was 710000 M⁻¹ s⁻¹.

B8: Hu4F11-78 (antibody, human IgG1, kappa, V domains shown)
VH: B1 VH
VL: B1 VL with H33Q
notes: Humanized, human IgG1 kappa; Hv3-23 A28T S31H T62S heavy + Kv2D-29 N28Q kappa
Consider B8, for which the Kd in assay [1] came out at 2.2 nM; in assay [2] it was 11 nM; in assay [3], 3.8 nM; in assay [4] it was 9 nM. Moreover, the koff was determined as 0.0038 s⁻¹ in assay [1], 0.007 s⁻¹ in assay [2], 0.0055 s⁻¹ in assay [3] and 0.006 s⁻¹ in assay [4]. The kon is 1.8e+06 M⁻¹ s⁻¹ in assay [1], 660000 M⁻¹ s⁻¹ in assay [2], 1.5e+06 M⁻¹ s⁻¹ in assay [3] and 820000 M⁻¹ s⁻¹ in assay [4].

B9: Hu4F11-76 (antibody, human IgG1, kappa, V domains shown)
VH: B1 VH with T28A
VL: B1 VL with H33Y
notes: Humanized, human IgG1 kappa; Hv3-23 S31H T62S heavy + Kv2D-29 N28Y kappa
Regarding B9, the Kd in assay [1] is 2.5 nM; in assay [2] it was 12 nM; in assay [3], 3.3 nM; in assay [4], 8.2 nM. Besides, the koff in assay [1] is 0.0019 s⁻¹; in assay [2], 0.0062 s⁻¹; in assay [3], 0.0055 s⁻¹; in assay [4], 0.0064 s⁻¹. Also, the kon came out at 780000 M⁻¹ s⁻¹ in assay [1], 540000 M⁻¹ s⁻¹ in assay [2], 1.7e+06 M⁻¹ s⁻¹ in assay [3] and 980000 M⁻¹ s⁻¹ in assay [4].

B10: Hu4F11-73 (antibody, human IgG1, kappa, V domains shown)
VH: B1 VH with H31N
VL: B1 VL with H33Y
notes: Humanized, human IgG1 kappa; Hv3-23 A28T S31N T62S heavy + Kv2D-29 N28Y kappa
As for B10, the Kd in assay [1] worked out at 2.6 nM; in assay [2], 15 nM; in assay [3], 5.9 nM; in assay [4], 11 nM. Moreover, the koff in assay [1] amounted to 0.0019 s⁻¹; in assay [2] it was 0.0063 s⁻¹; in assay [3], 0.0013 s⁻¹; in assay [4], 0.0046 s⁻¹. Further, the kon in assay [1] is 760000 M⁻¹ s⁻¹; in assay [2], 500000 M⁻¹ s⁻¹; in assay [3], 210000 M⁻¹ s⁻¹; in assay [4], 490000 M⁻¹ s⁻¹.

B11: Hu4F11-75 (antibody, human IgG1, kappa, V domains shown)
VH: B1 VH with H31S
VL: B1 VL with H33Y
notes: Humanized, human IgG1 kappa; Hv3-23 A28T T62S heavy + Kv2D-29 N28Y kappa
As for B11, the Kd worked out at 3.7 nM in assay [1], 24 nM in assay [2], 3.4 nM in assay [3] and 10 nM in assay [4]. Moreover, the koff in assay [1] came to 0.0026 s⁻¹; in assay [2], 0.0089 s⁻¹; in assay [3] it was 0.009 s⁻¹; in assay [4] it was 0.013 s⁻¹. The kon in assay [1] was 720000 M⁻¹ s⁻¹; in assay [2], 380000 M⁻¹ s⁻¹; in assay [3], 2.7e+06 M⁻¹ s⁻¹; in assay [4] it was 1.7e+06 M⁻¹ s⁻¹.

B12: Hu4F11-74 (antibody, human IgG1, kappa, V domains shown)
VH: B1 VH
VL: B1 VL with H33Y
notes: Humanized, human IgG1 kappa; Hv3-23 A28T S31H T62S heavy + Kv2D-29 N28Y kappa
Consider B12, for which the Kd amounted to 2.8 nM in assay [1], 12 nM in assay [2], 3.9 nM in assay [3] and 10 nM in assay [4]. The koff is 0.0025 s⁻¹ in assay [1], 0.0045 s⁻¹ in assay [2], 0.0022 s⁻¹ in assay [3] and 0.0051 s⁻¹ in assay [4]. The kon was determined as 900000 M⁻¹ s⁻¹ in assay [1], 440000 M⁻¹ s⁻¹ in assay [2], 560000 M⁻¹ s⁻¹ in assay [3] and 490000 M⁻¹ s⁻¹ in assay [4].
